Tests used:
Assay in all cases: Kinase Profiling Assay
Type in all cases: biochemical
Conditions in all cases: 100 μM
GRK7(h) = molecular target: T1, GRK7(h) (Homo sapiens, UniProt Q8WTQ7)
T1 sequence (Q8WTQ7 1-553): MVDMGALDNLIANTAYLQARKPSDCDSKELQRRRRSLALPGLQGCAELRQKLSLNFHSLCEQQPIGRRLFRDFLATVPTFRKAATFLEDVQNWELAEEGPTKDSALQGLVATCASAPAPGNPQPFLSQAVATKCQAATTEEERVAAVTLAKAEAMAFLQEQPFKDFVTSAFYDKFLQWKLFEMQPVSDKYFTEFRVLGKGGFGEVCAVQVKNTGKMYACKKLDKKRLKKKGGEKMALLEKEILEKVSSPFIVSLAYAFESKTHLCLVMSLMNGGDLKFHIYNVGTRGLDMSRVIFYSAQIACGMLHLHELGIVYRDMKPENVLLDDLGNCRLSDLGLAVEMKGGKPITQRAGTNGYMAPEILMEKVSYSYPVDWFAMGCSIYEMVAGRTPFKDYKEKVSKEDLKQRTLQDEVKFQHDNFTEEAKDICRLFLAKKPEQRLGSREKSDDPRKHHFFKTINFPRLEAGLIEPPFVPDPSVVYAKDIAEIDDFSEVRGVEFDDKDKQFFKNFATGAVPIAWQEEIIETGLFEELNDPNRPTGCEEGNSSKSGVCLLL

JNK2α2(h) = JNK2α2(h) (Homo sapiens, UniProt P45984)
Rse(h) = molecular target: T2, Rse(h) (Homo sapiens, UniProt Q06418)
T2 sequence (Q06418 41-890): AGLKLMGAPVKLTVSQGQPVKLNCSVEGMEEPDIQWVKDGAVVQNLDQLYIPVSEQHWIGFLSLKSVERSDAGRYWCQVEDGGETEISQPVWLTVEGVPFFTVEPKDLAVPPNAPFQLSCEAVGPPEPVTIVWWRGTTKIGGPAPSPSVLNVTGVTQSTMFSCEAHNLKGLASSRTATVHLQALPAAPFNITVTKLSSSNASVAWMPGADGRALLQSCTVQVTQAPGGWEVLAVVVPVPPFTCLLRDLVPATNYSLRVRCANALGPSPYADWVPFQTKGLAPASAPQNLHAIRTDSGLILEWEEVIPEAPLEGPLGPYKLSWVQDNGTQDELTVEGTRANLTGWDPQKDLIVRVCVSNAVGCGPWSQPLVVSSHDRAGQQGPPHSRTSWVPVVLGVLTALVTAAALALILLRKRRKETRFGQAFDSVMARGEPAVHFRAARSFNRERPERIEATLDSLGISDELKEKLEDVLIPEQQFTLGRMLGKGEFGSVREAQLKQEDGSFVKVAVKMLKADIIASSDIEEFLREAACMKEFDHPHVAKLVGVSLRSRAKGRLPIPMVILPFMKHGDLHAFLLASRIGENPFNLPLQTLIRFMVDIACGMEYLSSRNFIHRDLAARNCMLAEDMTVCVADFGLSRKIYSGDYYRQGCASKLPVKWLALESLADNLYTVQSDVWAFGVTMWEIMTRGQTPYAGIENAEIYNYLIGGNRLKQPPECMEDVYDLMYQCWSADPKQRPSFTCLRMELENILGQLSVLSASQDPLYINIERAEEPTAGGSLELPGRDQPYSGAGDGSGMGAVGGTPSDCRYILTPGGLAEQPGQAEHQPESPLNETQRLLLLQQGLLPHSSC

SAPK4(h) = molecular target: T3, SAPK4(h) (Homo sapiens, UniProt O15264)
T3 sequence (O15264 1-365): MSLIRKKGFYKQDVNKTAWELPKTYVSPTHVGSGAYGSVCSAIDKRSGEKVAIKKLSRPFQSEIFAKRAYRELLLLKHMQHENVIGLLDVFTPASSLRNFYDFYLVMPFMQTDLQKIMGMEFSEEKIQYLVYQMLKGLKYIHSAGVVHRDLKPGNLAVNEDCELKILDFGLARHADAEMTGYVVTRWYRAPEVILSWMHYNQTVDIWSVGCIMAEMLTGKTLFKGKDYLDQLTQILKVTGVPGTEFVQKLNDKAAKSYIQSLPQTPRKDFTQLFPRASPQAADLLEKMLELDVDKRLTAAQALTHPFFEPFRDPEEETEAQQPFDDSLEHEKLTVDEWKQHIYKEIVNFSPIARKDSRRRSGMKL

ULK2(h) = molecular target: T4, ULK2(h) (Homo sapiens, UniProt Q8IYT8)
T4 sequence (Q8IYT8 1-1036): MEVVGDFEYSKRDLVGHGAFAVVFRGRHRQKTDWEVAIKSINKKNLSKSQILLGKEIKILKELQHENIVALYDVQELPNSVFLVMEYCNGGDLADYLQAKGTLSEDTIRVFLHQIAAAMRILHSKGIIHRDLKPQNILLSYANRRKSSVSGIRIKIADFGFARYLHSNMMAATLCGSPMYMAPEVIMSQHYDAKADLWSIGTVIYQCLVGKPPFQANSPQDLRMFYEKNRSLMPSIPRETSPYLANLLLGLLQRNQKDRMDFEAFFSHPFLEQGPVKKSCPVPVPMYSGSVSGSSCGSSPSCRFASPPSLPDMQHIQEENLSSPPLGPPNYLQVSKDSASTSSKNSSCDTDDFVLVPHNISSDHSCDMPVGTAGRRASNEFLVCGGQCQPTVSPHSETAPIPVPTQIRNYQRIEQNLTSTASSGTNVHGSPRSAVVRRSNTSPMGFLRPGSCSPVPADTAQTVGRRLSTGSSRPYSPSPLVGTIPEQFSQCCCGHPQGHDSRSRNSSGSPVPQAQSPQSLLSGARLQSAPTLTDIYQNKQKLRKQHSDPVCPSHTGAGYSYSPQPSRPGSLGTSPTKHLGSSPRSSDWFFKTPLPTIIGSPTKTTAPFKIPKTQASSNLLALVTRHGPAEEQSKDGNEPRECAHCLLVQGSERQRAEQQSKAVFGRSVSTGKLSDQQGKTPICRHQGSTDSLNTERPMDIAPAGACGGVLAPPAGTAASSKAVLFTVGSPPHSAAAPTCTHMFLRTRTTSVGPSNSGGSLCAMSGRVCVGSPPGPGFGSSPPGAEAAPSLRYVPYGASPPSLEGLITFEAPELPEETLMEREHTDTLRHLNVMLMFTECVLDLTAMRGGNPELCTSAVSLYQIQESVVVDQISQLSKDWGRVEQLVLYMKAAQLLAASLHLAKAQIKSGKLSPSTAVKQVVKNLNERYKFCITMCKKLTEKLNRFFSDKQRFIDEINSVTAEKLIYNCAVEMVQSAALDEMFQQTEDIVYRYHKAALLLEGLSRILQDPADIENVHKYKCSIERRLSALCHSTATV

VRK2(h) = VRK2(h) (Homo sapiens, UniProt Q86Y07)
Sequence of VRK2(h) (Q86Y07 whole entry): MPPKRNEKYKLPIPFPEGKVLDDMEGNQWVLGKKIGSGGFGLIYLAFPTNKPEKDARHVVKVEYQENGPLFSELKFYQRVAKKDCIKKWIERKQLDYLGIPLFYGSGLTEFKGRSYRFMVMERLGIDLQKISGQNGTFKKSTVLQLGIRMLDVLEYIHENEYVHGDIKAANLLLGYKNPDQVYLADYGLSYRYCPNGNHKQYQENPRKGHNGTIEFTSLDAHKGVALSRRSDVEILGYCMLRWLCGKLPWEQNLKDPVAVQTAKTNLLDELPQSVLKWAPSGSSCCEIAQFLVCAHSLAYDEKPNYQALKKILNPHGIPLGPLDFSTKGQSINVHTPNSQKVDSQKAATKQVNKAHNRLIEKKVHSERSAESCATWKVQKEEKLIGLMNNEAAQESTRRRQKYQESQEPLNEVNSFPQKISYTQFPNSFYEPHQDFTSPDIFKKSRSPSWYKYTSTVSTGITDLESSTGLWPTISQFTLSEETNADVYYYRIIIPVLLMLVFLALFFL

Sequence | % activity (GRK7(h)) [%] | % activity (JNK2α2(h)) [%] | % activity (Rse(h)) [%] | % activity (SAPK4(h)) [%] | % activity (ULK2(h)) [%] | % activity (VRK2(h)) [%]
FAKLAARLYRKALARQLGVAA [MMI-0300] | 122 | 98 | 88 | 96 | 122 | 161
KAFAKLAARLYRKALARQLGVAA [MMI-0400] | 100 | 96 | 89 | 91 | 131 | 185
YARAAARQARAKALNRQLGVA [MMI-0200] | 124 |  | 88 |  | 132 | 
HRRIKAWLKKIKALARQLGVAA [MMI-0500] | 93 | 81 | 63 | 48 | 124 | 169

From US20190134153A1, “IMMUNOMODULATORY EFFECT OF INHALED KINASE INHIBITOR PEPTIDES IN LUNG” (MOERAE MATRIX, INC., priority 2017, published 2019)
